Measured values as given in PMC3019181 (BMC Microbiology, 2010).

Target: the molecule itself
Assay: two-hybrid; yeast; pJZ4-G clones in strain RFY231 mated with pHZ5-NRT clones in strain Y309; beta-galactosidase activity in Miller units (Yeast beta-Galactosidase Assay Kit, Pierce)

B1: Wag31T73EMtb (phosphomimetic Wag31 of Mycobacterium tuberculosis) (natural protein)
chain: MPLTPADVHNVAFSKPPIGKRGYNEDEVDAFLDLVENELTRLIEENSDLRQRINELDQELAAGGGAGVTPQAEQAIPAYEPEPGKPAPAAVSAGMNEEQALKAARVLSLAQDTADRLTNTAKAESDKMLADARANAEQILGEARHTADATVAEARQRADAMLADAQSRSEAQLRQAQEKADALQADAERKHSEIMGTINQQRAVLEGRLEQLRTFEREYRTRLKTYLESQLEELGQRGSAAPVDSNADAGGFDQFNRGKN
notes: also called phosphomimetic Wag31T73EMtb; source: yeast two-hybrid fusion
In the case of B1, the “fold interaction (beta-galactosidase activity) against wild-type Wag31Mtb with itself” value is reported as about 2 fold.
